Biological target: HLA-A*02:01 molecule (as used for thermal stability and structures) (human)
Experiment: thermal stability of the peptide-HLA-A*02:01 complex

Binder	Tm (temperature required to unfold 50% of the protein) of the pHLA-A*02:01 complex [° C.]
GLDNHTILL (modifications not checked) [BHA543-551 peptide]	72
NMLSTVLGV (modifications not checked) [PB1413-421 peptide]	72
